From US20240261423A1

Biological target: Insulin
Test: low stringency direct binding ELISA on coated insulin, antibody dilutions from 10 µg/mL

Sequence of Insulin (P01308 25-54, chain 1 of 2): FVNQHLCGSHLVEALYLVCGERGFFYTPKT
Sequence of Insulin (P01308 90-110, chain 2 of 2): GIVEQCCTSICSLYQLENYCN

Row | Polyreactivity Score | Substance
1 | 5.03 | Negative Control (polyreactivity assay) (antibody)
2 | 12.2 | Positive Control (polyreactivity assay) (antibody)
